We go through eight molecules from patent US20230357348A1 (AstraZeneca / MedImmune, published 2023).

The target in one assay is human glucagon receptor (human, UniProt P47871 26-477). The assay can be described thus: cell-based or functional assay.
In another assay the target is human GLP-1 receptor (human, UniProt P43220 24-463). Kind of assay: cell-based or functional assay.

Starred links: 1 amine or outer side, 2 acyl side, 3 side chain; linkers in the order of their positions; H or OH if unused. Non-standard residues stand in square brackets, D forms with d. Groups on a side chain read outwards from the residue. No end group written: not given here. *: point of attachment. β‑dimethylGln = β-dimethylglutamine, CC(C)(CC(N)=O)[C@H](N[*:1])C(=O)[*:2]; C20 diacid = O=C(O)CCCCCCCCCCCCCCCCCCC(=O)*; C18 diacid = O=C(O)CCCCCCCCCCCCCCCCC(=O)*; γGlu = O=C(O)[C@H](CCC(=O)[*:2])N[*:1]; αMeF = C[C@](N)(Cc1ccccc1)C(=O)O; NMeQ = CN[C@@H](CCC(N)=O)C(=O)O; AEEA = NCCOCCOCC(=O)O; Aib = CC(C)(N)C(=O)O

Sequence of human glucagon receptor (P47871 26-477): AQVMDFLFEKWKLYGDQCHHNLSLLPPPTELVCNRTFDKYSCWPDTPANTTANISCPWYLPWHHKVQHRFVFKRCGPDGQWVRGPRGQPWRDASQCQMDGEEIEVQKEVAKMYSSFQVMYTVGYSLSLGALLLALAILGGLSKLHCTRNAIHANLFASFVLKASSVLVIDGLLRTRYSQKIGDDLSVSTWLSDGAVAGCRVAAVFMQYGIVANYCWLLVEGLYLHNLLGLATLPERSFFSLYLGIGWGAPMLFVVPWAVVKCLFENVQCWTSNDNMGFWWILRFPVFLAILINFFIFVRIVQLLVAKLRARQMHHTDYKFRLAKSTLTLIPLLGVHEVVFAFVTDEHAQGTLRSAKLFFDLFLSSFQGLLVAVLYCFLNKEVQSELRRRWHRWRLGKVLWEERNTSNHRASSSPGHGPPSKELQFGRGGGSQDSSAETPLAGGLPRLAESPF

B1: Peptide 523 (peptide)
peptide: H[Aib]QGTFTSDVSK[αMeF]LDSERAK([AEEA-AEEA-γGlu-C20 diacid])DFVAWLEAGG-OH
modifications: N-terminus assumed
SMILES: CC(C)C[C@H](NC(=O)[C@H](Cc1c[nH]c2ccccc12)NC(=O)[C@H](C)NC(=O)[C@@H](NC(=O)[C@H](Cc1ccccc1)NC(=O)[C@H](CC(=O)O)NC(=O)[C@H](CCCCNC(=O)COCCOCCNC(=O)COCCOCCNC(=O)CC[C@H](NC(=O)CCCCCCCCCCCCCCCCCCC(=O)O)C(=O)O)NC(=O)[C@H](C)NC(=O)[C@H](CCCNC(=N)N)NC(=O)[C@H](CCC(=O)O)NC(=O)[C@H](CO)NC(=O)[C@H](CC(=O)O)NC(=O)[C@H](CC(C)C)NC(=O)[C@](C)(Cc1ccccc1)NC(=O)[C@H](CCCCN)NC(=O)[C@H](CO)NC(=O)[C@@H](NC(=O)[C@H](CC(=O)O)NC(=O)[C@H](CO)NC(=O)[C@@H](NC(=O)[C@H](Cc1ccccc1)NC(=O)[C@@H](NC(=O)CNC(=O)[C@H](CCC(N)=O)NC(=O)C(C)(C)NC(=O)[C@@H](N)Cc1c[nH]cn1)[C@@H](C)O)[C@@H](C)O)C(C)C)C(C)C)C(=O)N[C@@H](CCC(=O)O)C(=O)N[C@@H](C)C(=O)NCC(=O)NCC(=O)O
With B1, in the assay with human glucagon receptor, the “hGluc-R EC50 (pM), cAMP” value was over 24700 pM. Moreover, the “hGLP-1R EC50 (pM), cAMP” value in the assay with human GLP-1 receptor was determined as 615 pM.

B2: Peptide 325 (peptide)
peptide: HS[NMeQ]GS[αMeF]TSDVSK[αMeF]LDSRAAK([AEEA-AEEA-γGlu-C18 diacid])D[αMeF]VQ[Aib]IANT-NH2
modifications: N-terminus assumed
SMILES: CC[C@H](C)[C@H](NC(=O)C(C)(C)NC(=O)[C@H](CCC(N)=O)NC(=O)[C@@H](NC(=O)[C@](C)(Cc1ccccc1)NC(=O)[C@H](CC(=O)O)NC(=O)[C@H](CCCCNC(=O)COCCOCCNC(=O)COCCOCCNC(=O)CC[C@H](NC(=O)CCCCCCCCCCCCCCCCC(=O)O)C(=O)O)NC(=O)[C@H](C)NC(=O)[C@H](C)NC(=O)[C@H](CCCNC(=N)N)NC(=O)[C@H](CO)NC(=O)[C@H](CC(=O)O)NC(=O)[C@H](CC(C)C)NC(=O)[C@](C)(Cc1ccccc1)NC(=O)[C@H](CCCCN)NC(=O)[C@H](CO)NC(=O)[C@@H](NC(=O)[C@H](CC(=O)O)NC(=O)[C@H](CO)NC(=O)[C@@H](NC(=O)[C@](C)(Cc1ccccc1)NC(=O)[C@H](CO)NC(=O)CNC(=O)[C@H](CCC(N)=O)N(C)C(=O)[C@H](CO)NC(=O)[C@@H](N)Cc1c[nH]cn1)[C@@H](C)O)C(C)C)C(C)C)C(=O)N[C@@H](C)C(=O)N[C@@H](CC(N)=O)C(=O)N[C@H](C(N)=O)[C@@H](C)O
B2: in the assay with human glucagon receptor, the “hGluc-R EC50 (pM), cAMP” value is over 25500 pM. Further, in the assay with human GLP-1 receptor, the “hGLP-1R EC50 (pM), cAMP” value is 929 pM.

B3: Peptide 522 (peptide)
peptide: H[Aib]QGTFTSDVSK[αMeF]LDSERAK([AEEA-AEEA-γGlu-C18 diacid])DFVAWLEAGG-OH
modifications: N-terminus assumed
SMILES: CC(C)C[C@H](NC(=O)[C@H](Cc1c[nH]c2ccccc12)NC(=O)[C@H](C)NC(=O)[C@@H](NC(=O)[C@H](Cc1ccccc1)NC(=O)[C@H](CC(=O)O)NC(=O)[C@H](CCCCNC(=O)COCCOCCNC(=O)COCCOCCNC(=O)CC[C@H](NC(=O)CCCCCCCCCCCCCCCCC(=O)O)C(=O)O)NC(=O)[C@H](C)NC(=O)[C@H](CCCNC(=N)N)NC(=O)[C@H](CCC(=O)O)NC(=O)[C@H](CO)NC(=O)[C@H](CC(=O)O)NC(=O)[C@H](CC(C)C)NC(=O)[C@](C)(Cc1ccccc1)NC(=O)[C@H](CCCCN)NC(=O)[C@H](CO)NC(=O)[C@@H](NC(=O)[C@H](CC(=O)O)NC(=O)[C@H](CO)NC(=O)[C@@H](NC(=O)[C@H](Cc1ccccc1)NC(=O)[C@@H](NC(=O)CNC(=O)[C@H](CCC(N)=O)NC(=O)C(C)(C)NC(=O)[C@@H](N)Cc1c[nH]cn1)[C@@H](C)O)[C@@H](C)O)C(C)C)C(C)C)C(=O)N[C@@H](CCC(=O)O)C(=O)N[C@@H](C)C(=O)NCC(=O)NCC(=O)O
Take B3: the “hGluc-R EC50 (pM), cAMP” value with human glucagon receptor came to 6360 pM. For the same molecule, the “hGLP-1R EC50 (pM), cAMP” value with human GLP-1 receptor worked out at 508 pM.

B4: Peptide 324 (peptide)
peptide: HS[β‑dimethylGln]GS[αMeF]TSDVSK[αMeF]LDSRAAK([AEEA-AEEA-γGlu-C18 diacid])D[αMeF]VQ[Aib]IANT-NH2
modifications: N-terminus assumed
SMILES: CC[C@H](C)[C@H](NC(=O)C(C)(C)NC(=O)[C@H](CCC(N)=O)NC(=O)[C@@H](NC(=O)[C@](C)(Cc1ccccc1)NC(=O)[C@H](CC(=O)O)NC(=O)[C@H](CCCCNC(=O)COCCOCCNC(=O)COCCOCCNC(=O)CC[C@H](NC(=O)CCCCCCCCCCCCCCCCC(=O)O)C(=O)O)NC(=O)[C@H](C)NC(=O)[C@H](C)NC(=O)[C@H](CCCNC(=N)N)NC(=O)[C@H](CO)NC(=O)[C@H](CC(=O)O)NC(=O)[C@H](CC(C)C)NC(=O)[C@](C)(Cc1ccccc1)NC(=O)[C@H](CCCCN)NC(=O)[C@H](CO)NC(=O)[C@@H](NC(=O)[C@H](CC(=O)O)NC(=O)[C@H](CO)NC(=O)[C@@H](NC(=O)[C@](C)(Cc1ccccc1)NC(=O)[C@H](CO)NC(=O)CNC(=O)[C@@H](NC(=O)[C@H](CO)NC(=O)[C@@H](N)Cc1c[nH]cn1)C(C)(C)CC(N)=O)[C@@H](C)O)C(C)C)C(C)C)C(=O)N[C@@H](C)C(=O)N[C@@H](CC(N)=O)C(=O)N[C@H](C(N)=O)[C@@H](C)O
In the case of B4, in the assay with human glucagon receptor, the “hGluc-R EC50 (pM), cAMP” value was determined as 1930 pM. Moreover, in the assay with human GLP-1 receptor, the “hGLP-1R EC50 (pM), cAMP” value was 1330 pM.

Regarding H[Aib]QGTFTSDVSK[αMeF]LDSRAAK([AEEA-AEEA-γGlu-C18 diacid])DFVQWIANT-NH2 (not fully specified) [Peptide 318], the “hGluc-R EC50 (pM), cAMP” value with human glucagon receptor was determined as 12000 pM. The “hGLP-1R EC50 (pM), cAMP” value with human GLP-1 receptor came to 55.2 pM.

B5: Peptide 340 (peptide)
peptide: H[Aib]QGTFTSDYSK[αMeF]LDSRRAK([γGlu-C18 diacid])DFVQWLL[Aib]E-OH
modifications: N-terminus assumed
SMILES: CC(C)C[C@H](NC(=O)[C@H](Cc1c[nH]c2ccccc12)NC(=O)[C@H](CCC(N)=O)NC(=O)[C@@H](NC(=O)[C@H](Cc1ccccc1)NC(=O)[C@H](CC(=O)O)NC(=O)[C@H](CCCCNC(=O)CC[C@H](NC(=O)CCCCCCCCCCCCCCCCC(=O)O)C(=O)O)NC(=O)[C@H](C)NC(=O)[C@H](CCCNC(=N)N)NC(=O)[C@H](CCCNC(=N)N)NC(=O)[C@H](CO)NC(=O)[C@H](CC(=O)O)NC(=O)[C@H](CC(C)C)NC(=O)[C@](C)(Cc1ccccc1)NC(=O)[C@H](CCCCN)NC(=O)[C@H](CO)NC(=O)[C@H](Cc1ccc(O)cc1)NC(=O)[C@H](CC(=O)O)NC(=O)[C@H](CO)NC(=O)[C@@H](NC(=O)[C@H](Cc1ccccc1)NC(=O)[C@@H](NC(=O)CNC(=O)[C@H](CCC(N)=O)NC(=O)C(C)(C)NC(=O)[C@@H](N)Cc1c[nH]cn1)[C@@H](C)O)[C@@H](C)O)C(C)C)C(=O)N[C@@H](CC(C)C)C(=O)NC(C)(C)C(=O)N[C@@H](CCC(=O)O)C(=O)O
On to B5, for which the “hGluc-R EC50 (pM), cAMP” value with human glucagon receptor stood at 94.7 pM. Moreover, the “hGLP-1R EC50 (pM), cAMP” value with human GLP-1 receptor worked out at 312 pM.

On to H[Aib]QGS[αMeF]TSDVSK[αMeF]LDSRAAK([AEEA-AEEA-γGlu-γGlu-C20 diacid])D[αMeF]VQ[Aib]IANT-NH2 [Peptide 322], for which, in the assay with human glucagon receptor, the “hGluc-R EC50 (pM), cAMP” value was over 24700 pM. In addition, the “hGLP-1R EC50 (pM), cAMP” value with human GLP-1 receptor is 68.3 pM.

H[Aib]QGTFTSDVSK[αMeF]LDSRAAKDFVQWIANT-NH2 (not fully specified (residue 20)) [Peptide 343]: in the assay with human glucagon receptor, the “hGluc-R EC50 (pM), cAMP” value came to 19600 pM. In addition, the “hGLP-1R EC50 (pM), cAMP” value in the assay with human GLP-1 receptor stood at 198 pM.
